Residue numbers refer to the chain shown, from its start.
Key:
[1] = biological target: T1, Recombinant Human IL-6 sR (human, UniProt P08887 20-358); assay: BIACORE SPR, DVD-Ig captured, antigen in flow (C-terminal VD)
T1 construct: domain: IL-6 sR; Bought reagent; also called IL-6R
T1 sequence (looked up): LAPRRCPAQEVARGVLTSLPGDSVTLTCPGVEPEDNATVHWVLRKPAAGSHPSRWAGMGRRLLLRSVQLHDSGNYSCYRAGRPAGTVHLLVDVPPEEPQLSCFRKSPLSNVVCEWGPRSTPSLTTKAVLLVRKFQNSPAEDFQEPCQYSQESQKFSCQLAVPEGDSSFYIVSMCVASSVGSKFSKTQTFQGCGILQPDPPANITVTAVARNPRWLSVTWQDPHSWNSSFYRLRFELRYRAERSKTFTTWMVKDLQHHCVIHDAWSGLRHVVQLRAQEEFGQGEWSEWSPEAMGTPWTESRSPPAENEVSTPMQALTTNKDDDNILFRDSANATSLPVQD
Description: (§1) The BIACORE assay (Biacore, Inc, Piscataway, N.J.) determines the affinity of antibodies or DVD-Ig with kinetic measurements of on-rate and off-rate constants. […] All chemicals are obtained from Biacore® AB (Uppsala, Sweden) or otherwise from a different source as described in the text. For example, approximately 5000 RU of goat anti-mouse IgG, (Fcγ), fragment specific polyclonal antibody (Pierce Biotechnology Inc, Rockford, Ill.) diluted in 10 mM sodium acetate (pH 4.5) is directly immobilized across a CM5 research grade biosensor chip using a standard amine coupling kit according to manufacturer's instructions and procedures at 25 μg/ml. Unreacted moieties on the biosensor surface are blocked with ethanolamine. Modified carboxymethyl dextran surface in flowcell 2 and 4 is used as a reaction surface. Unmodified carboxymethyl dextran without goat anti-mouse IgG in flow cell 1 and 3 is used as the reference surface. For kinetic analysis, rate equations derived from the 1:1 Langmuir binding model are fitted simultaneously to association and dissociation phases of all eight injections (using global fit analysis) with the use of Biaevaluation 4.0.1 software. Purified antibodies or DVD-Ig are diluted in HEPES-buffered saline for capture across goat anti-mouse IgG specific reaction surfaces. Antibodies or DVD-Ig to be captured as a ligand (25 μg/m) are injected over reaction matrices at a flow rate of 5 μl/min. The association and dissociation rate constants, kₒₙ (M⁻¹s⁻¹) and koff (s⁻¹) are determined under a continuous flow rate of 25 μl/min. Rate constants are derived by making kinetic binding measurements at different antigen concentrations ranging from 10-200 nM. The equilibrium dissociation constant (M) of the reaction between antibodies or DVD-Igs and the target antigen is then calculated from the kinetic rate constants by the following formula: KD=koff/kₒₙ. Binding is recorded as a function of time and kinetic rate constants are calculated.

[2] = biological target: T1, Recombinant Human IL-6 sR; assay: direct bind ELISA, antigen coated on plate (C-terminal VD)
Description: (§2) Enzyme Linked Immunosorbent Assays to screen for antibodies that bind a desired target antigen were performed as follows. High bind ELISA plates (Corning Costar #3369, Acton, Mass.) were coated with 100 μL/well of 10 μg/ml of desired target antigen (R&D Systems, Minneapolis, Minn.) or desired target antigen extra-cellular domain/FC fusion protein (R&D Systems, Minneapolis, Minn.) or monoclonal mouse anti-polyHistidine antibody (R&D Systems # MAB050, Minneapolis, Minn.) in phosphate buffered saline (10×PBS, Abbott Bioresearch Center, Media Prep# MPS-073, Worcester, Mass.) overnight at 4° C. Plates were washed four times with PBS containing 0.02% Tween 20. Plates were blocked by the addition of 300 μL/well blocking solution (non-fat dry milk powder, various retail suppliers, diluted to 2% in PBS) for ½ hour at room temperature. Plates were washed four times after blocking with PBS containing 0.02% Tween 20.
(§3) Plates were washed 4 times with PBS containing 0.02% Tween 20.
(§4) One hundred microliters of enhanced TMB solution (Neogen Corp. #308177, K Blue, Lexington, Ky.) was added to each well and incubated for 10 minutes at room temperature. The reaction was stopped by the addition of 50 μL 1N sulphuric acid.

Recombinant Human β-NGF = Recombinant Human β-NGF (human, UniProt P01138 122-239, limits assumed); assay: BIACORE SPR, DVD-Ig captured, antigen in flow (C-terminal VD); BIACORE, DVD-Ig captured, NGF in flow, 25 C; C-terminal VD
Description: as §1

[3] = biological target: T1, Recombinant Human IL-6 sR; assay: BIACORE SPR, antibody captured, antigen in flow
Description: as §1

[4] = biological target: T1, Recombinant Human IL-6 sR; assay: direct bind ELISA, antigen coated on plate
Description: as §2, §3, §4

Recombinant Human IL-17 [5] = biological target: T2, Recombinant Human IL-17 (human, UniProt Q16552 20-155, limits assumed); assay: direct bind ELISA, antigen coated on plate (N-terminal VD)
T2 construct: also called IL-17A
Description: as §2, §3, §4

Recombinant Human IL-17 [6] = biological target: T2, Recombinant Human IL-17; assay: BIACORE SPR, DVD-Ig captured, antigen in flow (N-terminal VD)
Description: as §1

Recombinant Human IL-17 [7] = biological target: T2, Recombinant Human IL-17; assay: cell-based or functional assay
[8] = biological target: T1, Recombinant Human IL-6 sR; assay: direct bind ELISA, antigen coated on plate (N-terminal VD)
Description: as §2, §3, §4

[9] = biological target: T1, Recombinant Human IL-6 sR; assay: BIACORE SPR, DVD-Ig captured, antigen in flow (N-terminal VD)
Description: as §1

Recombinant Human IL-15 = Recombinant Human IL-15 (human, UniProt P40933 49-162); assay: as above
Description: as §1

Recombinant Human IL-17 [10] = biological target: T2, Recombinant Human IL-17; assay: BIACORE SPR, DVD-Ig captured, antigen in flow (C-terminal VD)
Description: as §1

Recombinant Human IL-17 [11] = biological target: T2, Recombinant Human IL-17; assay: direct bind ELISA, antigen coated on plate (C-terminal VD)
Description: as §2, §3, §4

Sequence of Recombinant Human β-NGF (P01138 122-239 limits assumed): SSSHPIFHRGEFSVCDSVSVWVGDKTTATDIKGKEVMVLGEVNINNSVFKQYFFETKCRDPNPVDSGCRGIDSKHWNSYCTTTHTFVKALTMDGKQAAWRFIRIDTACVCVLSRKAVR
T2 sequence (Q16552 20-155 limits assumed): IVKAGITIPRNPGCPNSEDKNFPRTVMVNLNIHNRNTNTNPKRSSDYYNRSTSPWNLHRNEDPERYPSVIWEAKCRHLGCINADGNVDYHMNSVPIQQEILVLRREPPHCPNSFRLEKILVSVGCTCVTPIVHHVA
Sequence of Recombinant Human IL-15 (P40933 49-162 limits assumed): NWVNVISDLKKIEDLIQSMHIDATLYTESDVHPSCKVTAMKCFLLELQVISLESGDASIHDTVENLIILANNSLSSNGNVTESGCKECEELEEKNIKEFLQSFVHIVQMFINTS

B1: DVD151 (PGE2 / IL-6R DVD-Ig) (bispecific antibody, human IgG1)
VH: EVQLVQSGAEVKKPGASVKVSCKASGYTFTKYWLGWVRQAPGQGLEWMGDIYPGYDYTHYNEKFKDRVTLTTDTSTSTAYMELRSLRSDDTAVYYCARSDGSSTYWGQGTLVTVSSASTKGPEVQLQESGPGLVRPSQTLSLTCTVSGYSITSDHAWSWVRQPPGRGLEWIGYISYSGITTYNPSLKSRVTMLRDTSKNQFSLRLSSVTAADTAVYYCARSLARTTAMDYWGQGSLVTVSS
VL: DVLMTQTPLSLPVTPGEPASISCTSSQNIVHSNGNTYLEWYLQKPGQSPQLLIYKVSNRFSGVPDRFSGSGSGTDFTLKISRVEAEDVGVYYCFQVSHVPYTFGGGTKVEIKRTVAAPDIQMTQSPSSLSASVGDRVTITCRASQDISSYLNWYQQKPGKAPKLLIYYTSRLHSGVPSRFSGSGSGTDFTFTISSLQPEDIATYYCQQGNTLPYTFGQGTKVEIKR
notes: Outer domain is AB048 (PGE2), inner domain is AB054 (IL-6R); also called VD151H; VD151L
Kd [1]: 5.94 nM | koff [1]: 0.00015 s⁻¹ | kon [1]: 25300 M⁻¹ s⁻¹ | EC50 [2]: 26500 nM

B2: DVD163 (PGE2 / NGF DVD-Ig) (bispecific antibody)
VH: EVQLVQSGAEVKKPGASVKVSCKASGYTFTKYWLGWVRQAPGQGLEWMGDIYPGYDYTHYNEKFKDRVTLTTDTSTSTAYMELRSLRSDDTAVYYCARSDGSSTYWGQGTLVTVSSASTKGPQVQLQESGPGLVKPSETLSLTCTVSGFSLIGYDLNWIRQPPGKGLEWIGIIWGDGTTDYNSAVKSRVTISKDTSKNQFSLKLSSVTAADTAVYYCARGGYWYATSYYFDYWGQGTLVTVSS
VL: B1 VL with D146S, S149N, Y150N, L172F, G209E, N210H, V222L
notes: Outer domain is AB048 (PGE2), inner domain is AB020 (NGF); also called VD163H; VD3163L
Kd (Recombinant Human β-NGF): 0.122 nM | koff (Recombinant Human β-NGF): 1.03e-06 s⁻¹ | kon (Recombinant Human β-NGF): 8400 M⁻¹ s⁻¹

B3: AB054 anti-IL-6R parent antibody (antibody, human IgG1, V domains shown)
VH: EVQLQESGPGLVRPSQTLSLTCTVSGYSITSDHAWSWVRQPPGRGLEWIGYISYSGITTYNPSLKSRVTMLRDTSKNQFSLRLSSVTAADTAVYYCARSLARTTAMDYWGQGSLVTVSS
VL: DIQMTQSPSSLSASVGDRVTITCRASQDISSYLNWYQQKPGKAPKLLIYYTSRLHSGVPSRFSGSGSGTDFTFTISSLQPEDIATYYCQQGNTLPYTFGQGTKVEIKR
Kd [3]: 0.448 nM | koff [3]: 0.00016 s⁻¹ | kon [3]: 357000 M⁻¹ s⁻¹ | EC50 [4]: 1.75 nM

B4: DVD156 (IL-17A / PGE2 DVD-Ig) (bispecific antibody)
VH: EVQLVESGGGLVQPGGSLRLSCAASGFTFSNYWMNWVRQAPGKGLEWVAAINQDGSEKYYVGSVKGRFTISRDNAKNSLYLQMNSLRVEDTAVYYCVRDYYDILTDYYIHYWYFDLWGRGTLVTVSSASTKGPEVQLVQSGAEVKKPGASVKVSCKASGYTFTKYWLGWVRQAPGQGLEWMGDIYPGYDYTHYNEKFKDRVTLTTDTSTSTAYMELRSLRSDDTAVYYCARSDGSSTYWGQGTLVTVSS
VL: not shown
notes: Outer domain is AB029 (IL-17A), inner domain is AB048 (PGE2); also called VD156H; VD156L
EC50 (Recombinant Human IL-17 [5]): 0.62 nM | Kd (Recombinant Human IL-17 [6]): ≤ 0.0115 nM | koff (Recombinant Human IL-17 [6]): < 1e-06 s⁻¹ | kon (Recombinant Human IL-17 [6]): 86800 M⁻¹ s⁻¹ | N-terminal VD IL-17 Neutralization Assay EC50 nM (IL-6 secretion by HS27 cells) (Recombinant Human IL-17 [7]): 0.2 nM

B5: DVD152 (IL-6R / PGE2 DVD-Ig) (bispecific antibody)
VH: EVQLQESGPGLVRPSQTLSLTCTVSGYSITSDHAWSWVRQPPGRGLEWIGYISYSGITTYNPSLKSRVTMLRDTSKNQFSLRLSSVTAADTAVYYCARSLARTTAMDYWGQGSLVTVSSASTKGPEVQLVQSGAEVKKPGASVKVSCKASGYTFTKYWLGWVRQAPGQGLEWMGDIYPGYDYTHYNEKFKDRVTLTTDTSTSTAYMELRSLRSDDTAVYYCARSDGSSTYWGQGTLVTVSS
VL: DIQMTQSPSSLSASVGDRVTITCRASQDISSYLNWYQQKPGKAPKLLIYYTSRLHSGVPSRFSGSGSGTDFTFTISSLQPEDIATYYCQQGNTLPYTFGQGTKVEIKRTVAAPDVLMTQTPLSLPVTPGEPASISCTSSQNIVHSNGNTYLEWYLQKPGQSPQLLIYKVSNRFSGVPDRFSGSGSGTDFTLKISRVEAEDVGVYYCFQVSHVPYTFGGGTKVEIKR
notes: Outer domain is AB054 (IL-6R), inner domain is AB048 (PGE2); also called VD152H; VD152L
EC50 [8]: 1.62 nM | Kd [9]: 0.275 nM | koff [9]: 0.000115 s⁻¹ | kon [9]: 420000 M⁻¹ s⁻¹

B6: DVD154 (IL-15 / PGE2 DVD-Ig) (bispecific antibody)
VH: EVQLVQSGAEVKKPGESLKISCKVSGYFFTTYWIGWVRQMPGKGLEYMGIIYPGDSDTRYSPSFQGQVTISADKSISTAYLQWSSLKASDTAMYYCARGGNWNCFDYWGQGTLVTVSSASTKGPEVQLVQSGAEVKKPGASVKVSCKASGYTFTKYWLGWVRQAPGQGLEWMGDIYPGYDYTHYNEKFKDRVTLTTDTSTSTAYMELRSLRSDDTAVYYCARSDGSSTYWGQGTLVTVSS
VL: EIVLTQSPGTLSLSPGERATLSCRASQSVSSSYLAWYQQKPGQAPRLLIYGASRRATGIPDRFSGSGSGTDFTLTISRLEPEDFAVYYCQRYGSSHTFGQGTKLEISRTVAAPDVLMTQTPLSLPVTPGEPASISCTSSQNIVHSNGNTYLEWYLQKPGQSPQLLIYKVSNRFSGVPDRFSGSGSGTDFTLKISRVEAEDVGVYYCFQVSHVPYTFGGGTKVEIKR
notes: Outer domain is AB049 (IL-15), inner domain is AB048 (PGE2); also called VD154H; VD154L
Kd (Recombinant Human IL-15): 4.89 nM | koff (Recombinant Human IL-15): 0.00198 s⁻¹ | kon (Recombinant Human IL-15): 404000 M⁻¹ s⁻¹

B7: DVD155 (PGE2 / IL-17A DVD-Ig) (bispecific antibody)
VH: EVQLVQSGAEVKKPGASVKVSCKASGYTFTKYWLGWVRQAPGQGLEWMGDIYPGYDYTHYNEKFKDRVTLTTDTSTSTAYMELRSLRSDDTAVYYCARSDGSSTYWGQGTLVTVSSASTKGPEVQLVESGGGLVQPGGSLRLSCAASGFTFSNYWMNWVRQAPGKGLEWVAAINQDGSEKYYVGSVKGRFTISRDNAKNSLYLQMNSLRVEDTAVYYCVRDYYDILTDYYIHYWYFDLWGRGTLVTVSS
VL: not shown
notes: Outer domain is AB048 (PGE2), inner domain is AB029 (IL-17A); also called VD155H; VD155L
Kd (Recombinant Human IL-17 [10]): 3.37 nM | koff (Recombinant Human IL-17 [10]): 0.000125 s⁻¹ | kon (Recombinant Human IL-17 [10]): 37000 M⁻¹ s⁻¹ | C-terminal VD IL-17 Neutralization Assay EC50 nM (IL-6 secretion by HS27 cells) (Recombinant Human IL-17 [7]): 5.7e-05 nM | EC50 (Recombinant Human IL-17 [11]): 248 nM

From patent US20150017095A1 (AbbVie / Abbott, published 2015)
